For assay [1], the system named is GPCR signaling pathways and cachexia-related pathways. The assay is described as follows: RNA-Seq analysis of quadriceps femoris. It is filed as in vivo, mouse. The settings on record: direct intramuscular injection of Dkk1 protein into the lower limbs. On the procedure: Total RNA was extracted using Trizol kit (Lige technology), RNA sequencing library was constructed from the extracted RNA using Illlumina library preparation protocol, RNA-seq was performed on Illlumina HiSeq4000 platform, using two-terminal protocol, the length of both regions was 150 bp. Sequencing reads were aligned to annotated mouse transcripts (mm10) using hisat2 (v2.1.0). Using GFOLD (v1.1.4) to calculate the gene expression level and has found differentially expressed genes. The parameters are as follows: GFOLD value≠0, and the changing value of the two samples is ≥1.35. The RNA-seq data collector GSE121873 was uploaded to the gene expression comprehensive database. KEGG pathway analysis was performed on the defined genes.

Another assay concerns HUVEC cells. The assay is described as follows: γH2AX DNA damage response in HUVEC cells (Western blot). Format: cell-based. To be noted: Dkk1 100 ng/ml. As to the method: (2) The transfection system of a 3.5 cm petri dish was prepared as follows: 1 μl of siRNA Oligo/Red (concentration of the original solution was 20 μM) was added to an EP tube containing 250 μl of pure Opti-MEM and mixed, and 1.5 μl of RNAiMAX (transfection Reagent) was added to the flow tube containing 250 μl of pure Opti-MEM and mixed, and then all the liquid in the EP tube was added to the flow tube and mixed, and allowed to stand at room temperature for 15 min.
(3) The prepared transfection system was added to a 3.5 cm culture dish, and the cells were cultured for 24-48 h, then the samples were collected and the total cell protein was extracted, and the knockdown effect of the gene was identified by Western Blotting.
(3) Add 150 μl of total protein lysate to each cell sample to make the lysate fully contact with the cells, scrape off the cell lysate with a scraper, collect it into a pre-cooled EP tube, and take an ice bath for 15 min.
(§1) Protein electrophoresis gels are double-layered gels, including an upper stacking gel and a lower separating gel. The concentration of the stacking gel is 5%, and the concentration of the separating gel is determined according to the molecular weight of the target protein. In this study, large molecular weight proteins (LRP5/6, β-catenin, β-arrestin1/2) used 8%-5% double-layer gel, and small molecular weight proteins (γH2AX, p53, p21, Bcl-2, Bax, Cleaved Caspase-3) used 12%-5% double-layer gel. In addition, the number of wells (10 wells or 15 wells) and thickness (1 mm or 1.5 mm) of the preparation gel were selected according to the number and volume of protein samples loaded. The gel formulation is shown in the experimental material section, and the preparation steps are as follows: […]
On the technique in general: A western blot detects proteins with antibodies after separation by electrophoresis.

The next assay relates to wild-type mice heart. As to the kind of experiment: Local injection of Dkk1 protein into the heart combined with MDC or BIM-46187. Format: in vivo, mouse. On the procedure: In the experiment of local injection of Dkk1 purified protein into the heart combined with MDC intervention, 10-week-old wild-type male mice were selected, the left chest was depilated, and intraperitoneal injection of MDC (diluted in sterile PBS, 10 mg/kg) or the corresponding volume of DMSO (diluted in sterile PBS) and injected at the same time every day thereafter. After 1 h of MDC intervention, cardiac Dkk1 protein injection was performed. The mice were given continuous inhalation anesthesia with 1% isoflurane and oxygenated with a ventilator, and then the fourth intercostal space near the sternum was opened to expose the heart. Using a 200 μl microsyringe, Dkk1 (10 μg of Dkk1 per heart, dissolved in 30 μl PBS) or an equal volume of PBS was injected locally at three sites in the heart. Of these, two sites are on the border around the left ventricle, and one site enters the myocardium of the left ventricle. After the injection, the wound was sutured, the anesthesia was removed, and the mice were awake. After MDC was continuously intervened for 2 days, the mice were anesthetized and the materials were collected.
In addition to injecting Dkk1 protein alone into the heart, we also need to perform experiments of local injection of Dkk1 combined with BIM-46187 into mouse hearts. According to the experimental grouping, it was divided into cardiac injections of four different solutions, including PBS, Dkk1, BIM-46187, and a mixture of Dkk1 and BIM-46187. The dosage of Dkk1 per heart is 10 μg, and the dosage of BIM-46187 is 2.4 ng, diluted with 30 μl PBS and then injected into the heart. The specific operation steps are the same as above. After the injection, the wound was sutured, the anesthesia was removed, and the mice were awake. Two days after the injection, the mice were anesthetized and the materials were collected.

In a further assay the test system is CT26 tumor-bearing mice. As to the kind of experiment: Survival of CT26 tumor-bearing mice (Kaplan-Meier). To be noted: mouse, in vivo, ip.
In a further assay the test system is β-arrestin1/2. As to the kind of experiment: β-arrestin1/2 translocation in HUVEC cells (Western blot). Format: cell-based. To be noted: Dkk1 stimulation alone. On the procedure:
(§2) (5) Add 100 μl (cell) or 200 μl (tissue) A solution to each sample, and resuspend the cell pellet with a pipette to completely disperse the pellet. The tissue pellet should be fully homogenized on ice with a homogenizer, and the ice bath should be used for 15 min.
(§3) (10) Add 50 μl (cells) or 100 μl (tissue) B solution to each sample, resuspend the pellet in Vortex at the highest speed for 10 s, ice bath for 10 min, and repeat twice to fully extract membrane proteins.
as §1

A further assay concerns LRP6 and Kremen2. The assay is described as follows: Intramuscular injection of Dkk1, Western blot of membrane LRP6 and Kremen2. It is filed as in vivo, mouse. To be noted: Dkk1 alone, lower limbs of normal mice. As to the method: Wild-type mice and β-arrestin2+/−KO mice were injected into the left quadriceps (0.25 mg/kg) and an equal volume of PBS was injected into the right leg as controls. MDC (10 mg/kg), IGFBP-4/H95P (1.7 mg/kg) or PBS were injected in combination with Dkk1 as a control to observe the effects of drugs on Dkk1-induced signal transduction. After 48 hours, the mice were sacrificed, and the left and right quadriceps were taken to measure the […].
Membrane proteins were extracted according to the instructions of Membrane Protein Extraction Kit (Sangon Biotech, China). Western blot analysis omitted. Antibodies for WB analysis were purchased from Cell Signaling Technology and Proteintech.

The subject of a further assay is LRP5/6. As to the kind of experiment: Membrane LRP5/6 endocytosis and nuclear β-catenin in HUVEC cells (Western blot). It is filed as cell-based. On the procedure:
as §2, §3
(11) Aspirate the residual supernatant completely, and add 50 μl of nuclear protein extract to each sample.
as §1

B1: Dkk1: recombinant mouse Dkk1 protein purchased from Genscript; secreted protein inducing LRP5/6 endocytosis (protein)
chain: TLNSVLINSNAIKNLPPPLGGAGGQPGSAVSVAPGVLYEGGNKYQTLDNYQPYPCAEDEECGSDEYCSSPSRGAAGVGGVQICLACRKRRKRCMRHAMCCPGNYCKNGICMPSDHSHFPRGEIEESIIENLGNDHNAAAGDGYPRRTTLTSKIYHTKGQEGSVCLRSSDCAAGLCCARHFWSKICKPVLKEGQVCTKHKRKGSHGLEIFQRCYCGEGLACRIQKDHHQASNSSRLHTCQRH
On to B1, for which the “activation of GPCR signaling pathways and cachexia-related pathways” value in assay [1] was “immediately led to the activation of GPCR signaling pathways and cachexia-related pathways”. Moreover, in the assay on HUVEC cells, the “time of peak γH2AX activation” value was determined as 15 min and the “time to significant γH2AX activation” value was at most 5 min. Further, the “cardiac membrane LRP5/6, γH2AX, p53, p21 and β-catenin signaling” value in the assay on wild-type mice heart (Dkk1 purified protein injected into myocardium, alone) is “directly induce the down-regulation of LRP5/6 and the up-regulation of γH2AX, p53 and p21 on the cardiac membrane without affecting β-catenin signaling”. Also, in the assay with wild-type mice heart (direct injection of Dkk1 into the heart, alone), the “cardiac β-arrestin1/2 translocation” value is “induces down-regulation of membrane β-arrestin1/2 and plasma β-arrestin1/2 and nuclear β-arrestin1 are up-regulated”. Moreover, the “translocation of insulin receptors in cardiac cells” value in the assay on wild-type mice heart (direct injection of Dkk1 protein) is recorded as “do not undergo translocation changes”. Besides, the “survival of tumor-bearing mice” value with CT26 tumor-bearing mice is “significantly shorten the survival period of tumor-bearing mice”. For the same molecule, the “β-arrestin1/2 translocation (cytoplasm / cell membrane)” value in the assay on β-arrestin1/2 is “rapidly up-regulate β-arrestin1/2 in HUVEC cytoplasm and down-regulate β-arrestin1/2 on the cell membrane”. The “membrane LRP6 and Kremen2 after intramuscular injection of Dkk1” value in the assay with LRP6 and Kremen2 was “causes the endocytosis of LRP6 and Kremen2 on the membrane”. Further, in the assay with LRP5/6 (Dkk1 100 ng/ml), the “time after which nuclear β-catenin is down-regulated” value came to 60 min, the “time from which endocytosis of LRP5 on the cell membrane is induced” value came to 15 min and the “time from which endocytosis of LRP6 on the cell membrane is induced” value stood at 5 min. Moreover, the “nuclear β-catenin expression within 30 min” value in the assay with LRP5/6 (higher doses of Dkk1) is recorded as “does not down-regulate nuclear β-catenin expression”.
